The results in this text go back to US12551596B2, “Delivery systems for administration of cationic biological actives” (Allvivo Vascular, Inc., priority 2017, dated 2026).

This data set in a line: Stability of ASP-1 in PU 077 catheter coating after EO sterilization and storage, HPLC. The class given is physicochemical. To be noted: coated on catheters, EO sterilized, stored at room temperature up to 9 months. The procedure: Composition (lot K-132, Table 9.1) comprising ASP-1 peptide (SEQ ID NO: 17 in Table A), custom synthesized hydrophilic medical grade polyurethane (PU 077), polyoxyl 15 hydroxystearate (PEG-15-HS) and citric acid monohydrate (CAxH2O) was prepared by dissolving components in MEK/ethanol solvent and dip coated on 7 Fr triple lumen catheters.
The obtained ASP-1 coated catheters were sterilized by ethylene oxide (EO) gas, vacuum dried and pouched in aluminum foil bags supplied with a desiccant pouch. Peptide purity and recovery from coatings before EO sterilization and after EO sterilization and storage was measured by HPLC after full extraction from catheters.

Take “RRWVRRVRRWVRRVVRVVRRWVRR (Antimicrobial peptide) [ASP-1]”: the “stability of ASP-1 peptide in catheter coating” value is listed as “good stability”.
